Measured values as given in patent US20240409645A1 (DUALYX, published 2024).

T1: mouse IL-2Rα, recombinant protein (mouse, UniProt P01590 22-236, limits assumed)
T1 construct: also called moIL2R-a
T1 sequence (looked up): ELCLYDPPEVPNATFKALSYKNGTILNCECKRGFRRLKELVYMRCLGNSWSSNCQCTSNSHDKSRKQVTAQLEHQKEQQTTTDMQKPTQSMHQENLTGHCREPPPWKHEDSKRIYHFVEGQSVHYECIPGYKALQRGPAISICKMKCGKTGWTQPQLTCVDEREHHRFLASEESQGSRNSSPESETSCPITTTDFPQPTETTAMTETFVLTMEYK

T2: human interleukin-2 receptor α-chain (IL-2Rα; CD25), recombinant protein (human, UniProt P01589 22-240, limits assumed)
T2 construct: also called huIL2R-a; hIL-2RA
T2 sequence: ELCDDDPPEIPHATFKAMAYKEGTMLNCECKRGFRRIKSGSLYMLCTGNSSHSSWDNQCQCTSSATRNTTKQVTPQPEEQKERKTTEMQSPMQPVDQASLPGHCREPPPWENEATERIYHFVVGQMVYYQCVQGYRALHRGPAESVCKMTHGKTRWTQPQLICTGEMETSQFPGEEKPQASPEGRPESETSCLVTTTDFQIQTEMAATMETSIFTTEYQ

T3: human interleukin-2 receptor α-chain (human, UniProt P01589 22-240, limits assumed)
T3 construct: Recombinant human IL-2Rα protein, coated on the ELISA plate or amine-coupled to a CM5 chip; also called human IL-2Rα; hu IL-2R
T3 sequence: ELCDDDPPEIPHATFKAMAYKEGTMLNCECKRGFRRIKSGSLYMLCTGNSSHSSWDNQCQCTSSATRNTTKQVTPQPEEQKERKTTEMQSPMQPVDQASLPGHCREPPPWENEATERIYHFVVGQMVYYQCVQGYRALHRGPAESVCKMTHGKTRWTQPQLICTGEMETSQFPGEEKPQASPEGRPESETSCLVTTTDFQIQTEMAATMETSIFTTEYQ

T4: mouse IL-2Rα (mouse, UniProt P01590 22-236, limits assumed)
T4 construct: Recombinant mouse IL-2Rα protein, coated on the ELISA plate or amine-coupled to a CM5 chip; also called mo IL-2R; moIL2R-a
T4 sequence (looked up): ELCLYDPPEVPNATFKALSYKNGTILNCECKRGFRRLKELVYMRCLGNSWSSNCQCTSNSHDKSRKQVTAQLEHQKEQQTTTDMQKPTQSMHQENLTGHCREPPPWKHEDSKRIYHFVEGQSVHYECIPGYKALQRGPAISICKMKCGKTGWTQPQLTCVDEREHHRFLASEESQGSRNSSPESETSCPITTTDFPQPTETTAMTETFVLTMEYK


Tests used:
[1] = target: T1, mouse IL-2Rα, recombinant protein; experiment: P.E. binding ELISA
Procedure, shortened: (§1)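 Read-out: OD at 450 nm, specificity called versus negative controls. Receptor chains (human or mouse IL-2Rα, β, γ) were coated directly overnight at 4° C; 4% Marvel/PBS block 1 h; P.E. at 1:5 dilution in 1% Marvel/PBS incubated 1 h.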

[2] = target: T2, human interleukin-2 receptor α-chain …; experiment: P.E. binding ELISA
Procedure, shortened: as §1

[3] = target: T1, mouse IL-2Rα, recombinant protein; experiment: P.E. off-rate SPR
Procedure, shortened: (§2)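 First, the IL-2R protein is immobilised via amine coupling in acetate buffer to roughly 2500 RU on a CM5 sensor chip. Next, the VHH extract is loaded at 30 uL/min. Finally, dissociation is recorded for 120s.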

[4] = target: T2, human interleukin-2 receptor α-chain …; experiment: P.E. off-rate SPR
Procedure, shortened: as §2

[5] = target: T3, human interleukin-2 receptor α-chain; experiment: binding ELISA, periplasmic extract 1:5 on coated human IL-2Rα, anti-c-myc detection
Procedure: In a binding ELISA, human or mouse IL-2Rα, IL-2Rβ and IL-2Rγ proteins were coated directly on maxisorp microtiter plates overnight at 4° C. Free binding sites were blocked using 4% Marvel in PBS for 1 hour. Next, 1:5 dilution of P.E. in 1% Marvel/PBS were added to wells and incubated for 1 hour. […] Binding specificity was determined based on O.D. at 450 nm values compared to negative controls.

[6] = target: T3, human interleukin-2 receptor α-chain; experiment: SPR (Biacore 3000) off-rate ranking, periplasmic extract over immobilised human IL-2Rα
Procedure: SPR was performed to determine dissociation rates using Biacore 3000 instrument (GE Healthcare). Briefly, human and mouse IL-2R proteins were immobilized on carboxylmethyl dextran sensor chip (CM5) at approximately 2500 RUs using amine coupling in acetate buffer (GE Healthcare). The VHH-containing P.E. were loaded with a flow rate of 30 uL/min and the off-rates were measured over a 120s period.

mouse IL-2Rα = target: T4, mouse IL-2Rα; experiment: SPR (Biacore 3000) off-rate ranking, periplasmic extract over immobilised mouse IL-2Rα

Row | Binder | OD450 nm [1] | OD450 nm [2] | koff [3] | koff [4] | PE binding ELISA (OD450 nm) [5] | koff [6] | koff (mouse IL-2Rα)
1 | 12-MP05B12 VHH (periplasmic extract) (VHH, soluble VHH in periplasmic extract) VHH: QVQLVESGGGLVQAGGSLRLSCAASGFTFDGYAIGWFRQAPGKEREGVSYITGSDGSTYYADSVKGRFTISSNNAKNTVYLHMNSLKPDDAAVYYCAIDRLGSRGAYVPIWWRSSDMDLWGKGTLVTVSS | 0.936 OD450 nm | 2.14 OD450 nm | 0.000547 s⁻¹ | 0.000222 s⁻¹ | – | – | –
2 | 11-MP05H04 VHH (periplasmic extract) (VHH, soluble VHH in periplasmic extract) VHH: QLQLVESGGGLVQAGGSLRLSCAASGLTFEGYAIGWFRQAPGKEREGVSYITGSDGTTYYINSVKGRFTISSDNAKSTVYLQMNTLKPEDTAVYYCAVDRLGSQGRYASAWWRSGDMDLWGKGTQVTVSS | 0.163 OD450 nm | 2.22 OD450 nm | 0.00163 s⁻¹ | 0.0012 s⁻¹ | – | – | –
3 | 4-MP01F04 VHH (periplasmic extract) (VHH, soluble VHH in periplasmic extract) VHH: QVQLVESGGGLVQAGGSLRLSCAASGGTFRTRNMGWFRRAPGKEREFVAAVSWNVDNKLYADSVKGRFTISRDNGRNMVYLQMNSLKPEDTAVYYCAADNIPLSSDMRPTATEYDYWGQGTQVTVSS | 0.046 OD450 nm | 2.49 OD450 nm | 0.256 s⁻¹ | 0.000258 s⁻¹ | – | – | –
4 | 9-MP05G01 VHH (periplasmic extract) (VHH, soluble VHH in periplasmic extract) VHH: EVQLVESGGGLVQAGGSLRLSCAASGGSIYTYNMGWFRQAPGKEREFVAGTLWSGGDSVYADFAKGRFTLSRENAKNTLYLQMNSLKPEDTATYYCAIDPLSLTSDWRVDELSSWGKGTLVTVSS | 0.047 OD450 nm | 2.35 OD450 nm | 0.0442 s⁻¹ | 0.000169 s⁻¹ | – | – | –
5 | FJ1427_P035MP05F11 (VHH, Tested as soluble VHH in a crude periplasmic extract (P.E.); CDR3 family 15; also called Clone nr; 470) VHH: QVQLVESGGGSVQAGGSLRLSCAASGRTLYSSYGMAWFRQAPGKERDFVGSISRYGTYTSYADSVKDRFTISRDNAKSTVYLQMNNTKPEDTAVYYCAAYTYSGSFYSAVKTHRDEYQYWGQGTQVTVSS | – | – | – | – | 2.27 OD450 | 0.00173 s⁻¹ | –
6 | FJ1427_P035MP05D12 (VHH, Tested as soluble VHH in a crude periplasmic extract (P.E.); CDR3 family 15; also called Clone nr) VHH: QLQLVESGGGSVQAGGSLRLSCAASGRTLYSSYGMAWFRQAPGKERDFVGSISRYGTYTSYADSVKDRFTISRDNAKSTVYLQMNNTKPEDTAVYYCAAYTYSGSFYSTVKTHRDEYQYWGQGTQVTVSS | – | – | – | – | 2.39 OD450 | 0.00235 s⁻¹ | –
7 | FJ1427_P035MP05C12 (VHH, Tested as soluble VHH in a crude periplasmic extract (P.E.); CDR3 family 1; also called Clone nr) VHH: EVQLVESGGGLVQAGDSLRLSCAASGFNFGWHAMGWFRQAPGKEREFVATITWTGRDTYYADSVRGRFTISKDNAKNTLFLQMSSLRPDDTGVYYCAKARERATWAYSEDDCDYWGQGTQVTVSS | – | – | – | – | 2.4 OD450 | 0.000874 s⁻¹ | –
8 | FJ1427_P035MP05E12 (VHH, Tested as soluble VHH in a crude periplasmic extract (P.E.); CDR3 family 1; also called Clone nr) VHH: QLQLVESGGGLVQAGDSLRLSCAASGFNFGWHAMGWFRQAPGKEREFVATITWTGRDTYYADSVRGRFTISKDNAKDTLFLQMNSLRPDDTGVYYCAKARERATWAYSEDDCDYWGQGTQVTVSS | – | – | – | – | 2.15 OD450 | 0.000273 s⁻¹ | –
9 | FJ1427_P035MP05F12 (VHH, Tested as soluble VHH in a crude periplasmic extract (P.E.); CDR3 family 4; also called Clone nr) VHH: QLQLVESGGGLVQAGGSLRLSCLASGLTFDGYAIGWFRQAPGKELEGVSYITGSDGSSYYADSVKGRFTISSDNAKNTVYLHMNSLKPDDAAVYYCAIDHLGSRGGYHSSWWRSSDMDLWGKGTLVTVSS | – | – | – | – | 2.19 OD450 | 0.000469 s⁻¹ | 0.00463 s⁻¹
